Measured values taken from patent publication US20190071480A1 (Biogen, published 2019).
Bridges are numbered along the chain shown (N, C = ends).

T1: extracellular domain of activin receptor type IIB (ActRIIBecd), biotinylated (Homo sapiens (Human), UniProt Q13705 27-117, amino-biotinylated with amine-PEG3-Biotin)
T1 construct: immobilised on a streptavidin-coated sensor chip; also called biotinylated ActRIIBecd; extracellular domain of ActRIIB
T1 sequence: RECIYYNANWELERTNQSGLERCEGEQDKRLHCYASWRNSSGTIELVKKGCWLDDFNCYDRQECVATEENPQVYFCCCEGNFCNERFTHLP


Tests used:
[1] = molecular target: T1, extracellular domain of activin …; test: Mean KD column of Table 5; method not restated (BIAcore as Example 5); species also listed in Table 4
Description: (§1) Biosensor experiments. In one embodiment, experiments were performed on a BIAcore™ T100/T200 instrument (Pharmacia Biosensor AB) in the multichannel mode (serial flow path involving flow cells 1+2+3+4). Flow rate was 10 μl/min; temperature was 25° C.; and data were recorded at 2.5 points/s. All four segments of a sensor chip CMS were coated with streptavidin (Sigma) to a density of 2000 pg/mm² (2000 resonance units) by the aminocoupling procedure. ActRIIBecd (10 mg) and amine-PEG3-Biotin (10 mg, Pierce, Rockford, Ill.) were dissolved in 200 μl H₂O and 10 mg NaCNBH₃ was added to prepare biotinylated ActRIIBecd. The reaction mixture was heated at 70° C. for 24 h, after that a further 10 mg NaCNBH₃ was added and the reaction was heated at 70° C. for another 24 h. After cooling to room temperature, the mixture was desalted with the spin column (3,000 molecular weight cut off (MWCO)). Biotinylated ActRIIBecd was collected, freeze-dried and used for streptavidin (SA) chip preparation. Amino-biotinylated ActRIIBecd was then immobilized independently on flow cells 2-4 for 10 minutes at a flow rate of 5 μL/min and a concentration of 20 μM in 10 mM sodium acetate, pH 4.0, at a density of 50-250 resonance units (RU). The stored polypeptides were dissolved in glycine buffer (2.5 g of glycine, 0.5 g of sucrose, 370 mg of L-glutamate, 10 mg of sodium chloride, and 10 mg of Tween 80 in 100 mL water, pH 4.5) to prepare 10 mg/mL solution and then diluted with previous glycine buffer to prepare analytes with various concentration. Sensograms were recorded during flow of the analyte (the ActRIIBecd-associated polypeptides (i.e., domains) as previously described) first through flow cell 1 (control) then through flow cell 2 (biotinylated ActRIIBecd). The sensogram obtained for flow cell 1 was subtracted from the sensogram obtained for flow cell 2. The sensograms obtained at 1.11, 3.33, 10, 30, and 90 nM analyte were evaluated for equilibrium binding, association rate, and dissociation rate by using the programs supplied with the instrument (BIA evaluation 2.1; Software Handbook. 1995; Pharmacia Biosensor AB).

[2] = molecular target: T1, extracellular domain of activin …; test: BIAcore SPR as Example 5 (method not restated); SD ±1.63 nM
Description: as §1, with “Biotinylated ActRIIBecd was collected, freeze-dried and used for streptavidin (SA) chip preparation. Amino-biotinylated ActRIIBecd was then immobilized independently on flow cells 2-4 for 10 minutes at a flow rate of 5 μL/min and a concentration of 20 μM in 10 mM sodium acetate, pH 4.0, at a density of 50-250 resonance units (RU). The stored polypeptides were dissolved in glycine buffer (2.5 g of glycine, 0.5 g of sucrose, 370 mg of L-glutamate, 10 mg of sodium chloride, and 10 mg of Tween 80 in 100 mL water, pH 4.5) to prepare 10 mg/mL solution and then diluted with previous glycine buffer to prepare analytes with various concentration.” left out, “The sensogram obtained for flow cell 1 was subtracted from the sensogram obtained for flow cell 2.” left out

[3] = molecular target: T1, extracellular domain of activin …; test: BIAcore SPR as Example 5 (method not restated); SD ±1.67 nM
Description: as §1, with “Biotinylated ActRIIBecd was collected, freeze-dried and used for streptavidin (SA) chip preparation. Amino-biotinylated ActRIIBecd was then immobilized independently on flow cells 2-4 for 10 minutes at a flow rate of 5 μL/min and a concentration of 20 μM in 10 mM sodium acetate, pH 4.0, at a density of 50-250 resonance units (RU). The stored polypeptides were dissolved in glycine buffer (2.5 g of glycine, 0.5 g of sucrose, 370 mg of L-glutamate, 10 mg of sodium chloride, and 10 mg of Tween 80 in 100 mL water, pH 4.5) to prepare 10 mg/mL solution and then diluted with previous glycine buffer to prepare analytes with various concentration.” left out, “The sensogram obtained for flow cell 1 was subtracted from the sensogram obtained for flow cell 2.” left out

[4] = molecular target: T1, extracellular domain of activin …; test: Mean KD column of Table 5; method not restated (BIAcore as Example 5)
Description: as §1

[5] = molecular target: T1, extracellular domain of activin …; test: BIAcore SPR as Example 5 (method not restated); SD ±2.15 nM
Description: as §1, with “Biotinylated ActRIIBecd was collected, freeze-dried and used for streptavidin (SA) chip preparation. Amino-biotinylated ActRIIBecd was then immobilized independently on flow cells 2-4 for 10 minutes at a flow rate of 5 μL/min and a concentration of 20 μM in 10 mM sodium acetate, pH 4.0, at a density of 50-250 resonance units (RU). The stored polypeptides were dissolved in glycine buffer (2.5 g of glycine, 0.5 g of sucrose, 370 mg of L-glutamate, 10 mg of sodium chloride, and 10 mg of Tween 80 in 100 mL water, pH 4.5) to prepare 10 mg/mL solution and then diluted with previous glycine buffer to prepare analytes with various concentration.” left out, “The sensogram obtained for flow cell 1 was subtracted from the sensogram obtained for flow cell 2.” left out

Row | Kd [1] | Kd [4] | Binder | further results
1 | 52.2 nM |  | SEQ ID NO: 230, cysteine pairs C27-C65^a (designed binder, disulfides C27-C65 (intra)) VDFKDVGWNDHAVAPPGYHAFYCHGECPFPLADHLNSDNHAIVQTKVNSVGQAKRKGYKRLKSSCKRHPLY | Kd [2]: 52.2 nM
2 | 7.45 nM |  | SEQ ID NO: 260, cysteine pairs C15-C15^b, C80-C114^a, C79-C112^a, C44-C48^a (designed binder, disulfides C15-C15 (inter), C80-C114 (intra), C79-C112 (intra), C44-C48 (intra), homodimer by intermolecular disulfide) AQAKHKQRKRLKSSCKRHPLYVDFSDVGWNDWIVAPPGYHAFYCHGECPFPLADHLNSTNHAIVQTLVNSVNSKIPKACCVPTELSAISMLYLDENEKVVLKNYQDMVVEGCGCR | Kd [3]: 7.45 nM
3 |  | 8.04 nM | SEQ ID NO: 260, cysteine pairs C44-C48^a (designed binder, disulfides C44-C48 (intra)) AQAKHKQRKRLKSSCKRHPLYVDFSDVGWNDWIVAPPGYHAFYCHGECPFPLADHLNSTNHAIVQTLVNSVNSKIPKACCVPTELSAISMLYLDENEKVVLKNYQDMVVEGCGCR | 
4 |  | 6.05 nM | SEQ ID NO: 260, cysteine pairs C79-C114^b, C80-C112^b, C44-C48^a (designed binder, disulfides C79-C114 (inter), C80-C112 (inter), C44-C48 (intra), homodimer by intermolecular disulfide) AQAKHKQRKRLKSSCKRHPLYVDFSDVGWNDWIVAPPGYHAFYCHGECPFPLADHLNSTNHAIVQTLVNSVNSKIPKACCVPTELSAISMLYLDENEKVVLKNYQDMVVEGCGCR | 
5 |  | 4.04 nM | SEQ ID NO: 260, cysteine pairs C15-C15^b, C80-C114^b, C79-C112^b, C44-C48^a (designed binder, disulfides C15-C15 (inter), C80-C114 (inter), C79-C112 (inter), C44-C48 (intra), homodimer by intermolecular disulfide) AQAKHKQRKRLKSSCKRHPLYVDFSDVGWNDWIVAPPGYHAFYCHGECPFPLADHLNSTNHAIVQTLVNSVNSKIPKACCVPTELSAISMLYLDENEKVVLKNYQDMVVEGCGCR | 
6 |  | 6.17 nM | SEQ ID NO: 260, cysteine pairs C79-C114^a, C80-C112^a, C44-C48^a (designed binder, disulfides C79-C114 (intra), C80-C112 (intra), C44-C48 (intra)) AQAKHKQRKRLKSSCKRHPLYVDFSDVGWNDWIVAPPGYHAFYCHGECPFPLADHLNSTNHAIVQTLVNSVNSKIPKACCVPTELSAISMLYLDENEKVVLKNYQDMVVEGCGCR | 
7 |  | 4.03 nM | SEQ ID NO: 260, cysteine pairs C15-C15^b, C79-C114^b, C80-C112^b, C44-C48^a (designed binder, disulfides C15-C15 (inter), C79-C114 (inter), C80-C112 (inter), C44-C48 (intra), homodimer by intermolecular disulfide) AQAKHKQRKRLKSSCKRHPLYVDFSDVGWNDWIVAPPGYHAFYCHGECPFPLADHLNSTNHAIVQTLVNSVNSKIPKACCVPTELSAISMLYLDENEKVVLKNYQDMVVEGCGCR | 
8 |  | 8.75 nM | SEQ ID NO: 324, cysteine pairs C44-C48^a (designed binder, disulfides C44-C48 (intra)) AQAKHKQRKRLKSSCKRHPLYVDFKDVGWNDHAVAPPGYHAFYCHGECPFPLADHLNSDNHAIVQTKVNSVNSKIPKACCVPTELSAISMLYLDENEKVVLKNYQDMVVEGCGCR | 
9 | 7.22 nM |  | SEQ ID NO: 324, cysteine pairs C80-C114^a, C79-C112^a, C44-C48^a (designed binder, disulfides C80-C114 (intra), C79-C112 (intra), C44-C48 (intra)) AQAKHKQRKRLKSSCKRHPLYVDFKDVGWNDHAVAPPGYHAFYCHGECPFPLADHLNSDNHAIVQTKVNSVNSKIPKACCVPTELSAISMLYLDENEKVVLKNYQDMVVEGCGCR | Kd [5]: 7.22 nM
10 |  | 7.41 nM | SEQ ID NO: 276, cysteine pairs C67-C71^a (designed binder, disulfides C67-C71 (intra)) NSKIPKACCVPTELSAISMLYLDENEKVVLKNYQDMVVEGCGCRVDFSDVGWNDWIVAPPGYHAFYCHGECPFPLADHLNSTNHAIVQTLVNSVAQAKHKQRKRLKSSCKRHPLY | 
11 | 17 nM |  | SEQ ID NO: 206, cysteine pairs C67-C71^a, C8-C43^b, C9-C41^b (designed binder, disulfides C67-C71 (intra), C8-C43 (inter), C9-C41 (inter), homodimer by intermolecular disulfide) NSKIPKACCVPTELSAISMLYLDENEKVVLKNYQDMVVEGCGCRVDFSDVGWNDWIVAPPGYHAFYCHGECPFPLADHLNSTNHAIVQTLVNSV | Kd [5]: 17 nM
12 | 18.1 nM |  | SEQ ID NO: 242, cysteine pairs C15-C15^b, C29-C64^a, C30-C62^a (designed binder, disulfide 29-64, 30-62; also: homodimer via intermolecular C15-C15 disulfide, homodimer by intermolecular disulfide) GQAKRKGYKRLKSSCKRHPLYNSKDPKACCVPTELSAPSPLYLDENEKPVLKNYQDMVVHGCGCR | Kd [2]: 18.1 nM
